From patent US20040167319A1 (Genmab, published 2004) come the findings set out here.

One assay addresses T1, AGIYAPI (also: covalently linked to polyethylene card).
T1 construct: 7-mer Pepscan peptide derived from human CD20
T1 peptide: AGIYAPI
As to the kind of experiment: Pepscan ELISA, 10 µg/ml. From the text:
(§1) In some cases chemical linkage of the legs of a 15-mer peptide helps to identify amino acid sequences of a potentially discontinuous epitope. […] The 9- and 15-mers were synthesized as loops and screened using credit-card format mini-PEPSCAN cards (455 peptide format/card). In all looped peptides amino acids at varied positions were replaced by a cysteine (e.g., acetyl-XCXXXXXXXXCX-minicard). The peptides were synthesized using standard Fmoc-chemistry and deprotected using TFA with scavengers. Subsequently, the deprotected peptides were reacted on the microarray with an 0.5 mM solution of 1,3-bis(bromomethyl)-benzene in ammonium bicarbonate (20 mM, pH 7.9), supplemented with acetonitrile (1:1 (v/v)). The microarrays were gently shaken in the solution for 30-60 min, while completely covered in the solution. Finally, the microarrays were washed extensively with excess of Millipore H₂O and sonicated in disrupt-buffer containing 1% sodium dodecylsulfate, 0.1% β-mercaptoethanol, in PBS (pH 7.2) at 70° C. for 30 min, followed by sonication in millipore H₂O for another 45 min. Subsequently, the microwells were ready for screening in an ELISA-assay.
(§2) […] After washing, the peptides were incubated with anti-human antibody peroxidase (dilution 1:1000, 1 hour, 25° C.), and after washing the peroxidase substrate, 2,2′-azino-di-3-ethylbenzthiazolin sulfonate and 2 μl/ml 3% H₂O₂ were added. After one hour, the color development was measured. The color development of the ELISA was quantified with a CCD-camera and an image processing system.

The target in the next assay is T2, PCINIYNAEPANPCE (linker 2-14 via 1,3‑bis(bromomethyl)‑benzene (inferred); reading uncertain).
T2 construct: 15-mer looped Pepscan peptide derived from human CD20, Cys put in at two positions
T2 peptide: Ac-PCINIYNAEPANPCE-minicard
As to the kind of experiment: Pepscan ELISA, 10 µg/ml.
Text: as §1, §2

For another assay, the target named is T3, ICNAEPANPSEKNCP (linker 2-14 via 1,3‑bis(bromomethyl)‑benzene (inferred); reading uncertain).
T3 construct: 15-mer looped Pepscan peptide derived from human CD20, Cys put in at two positions
T3 peptide: Ac-ICNAEPANPSEKNCP-minicard
Nature of the assay: Pepscan ELISA, 10 µg/ml.
Text: as §1, §2

In another assay the target is T4, ACPANPSEKNSPSCQ (linker 2-14 via 1,3‑bis(bromomethyl)‑benzene (inferred); reading uncertain).
T4 construct: 15-mer looped Pepscan peptide derived from human CD20, Cys put in at two positions
T4 peptide: Ac-ACPANPSEKNSPSCQ-minicard
As to the kind of experiment: Pepscan ELISA, 10 µg/ml.
Text: as §1, §2

In a further assay the target is T5, KMECLNFIRAHCPYI (linker 4-12 via 1,3‑bis(bromomethyl)‑benzene (inferred); reading uncertain).
T5 construct: 15-mer looped Pepscan peptide derived from human CD20, Cys put in at two positions
T5 peptide: Ac-KMECLNFIRAHCPYI-minicard
Nature of the assay: Pepscan ELISA, 10 µg/ml.
Text: as §1, §2

The next assay concerns the target T6, MESLCFIRAHCPYIN (linker 5-11 via 1,3‑bis(bromomethyl)‑benzene (inferred); reading uncertain).
T6 construct: 15-mer looped Pepscan peptide derived from human CD20, Cys put in at two positions
T6 peptide: Ac-MESLCFIRAHCPYIN-minicard
Nature of the assay: Pepscan ELISA, 10 µg/ml.
Text: as §1, §2

A further assay deals with T7, CIRAHTPYC (linker 1-9 via 1,3‑bis(bromomethyl)‑benzene (inferred); not fully specified (C-terminus); also: covalently linked to minicard).
T7 construct: 9-mer looped Pepscan peptide derived from human CD20
T7 peptide: CIRAHTPYC
Nature of the assay: Pepscan ELISA, 10 µg/ml.
Text: as §1, §2

The next assay deals with T8, YCNIYNAEPANPSCK (linker 2-14 via mXylylene; reading uncertain).
T8 construct: 15-mer looped Pepscan peptide derived from human CD20, Cys put in at two positions
T8 peptide: Ac-YCNIYNAEPANPSCK-minicard
As to the kind of experiment: Pepscan ELISA, 10 µg/ml.
Text: as §1, §2

The target in the next assay is T9, GIYAPIC (also: covalently linked to polyethylene card).
T9 construct: 7-mer Pepscan peptide derived from human CD20
T9 peptide: GIYAPIC
As to the kind of experiment: Pepscan ELISA, 10 µg/ml.
Text: as §1, §2

Another assay deals with T10, KMESCNFIRACTPYI (linker 5-11 via 1,3‑bis(bromomethyl)‑benzene (inferred); reading uncertain).
T10 construct: 15-mer looped Pepscan peptide derived from human CD20, Cys put in at two positions
T10 peptide: Ac-KMESCNFIRACTPYI-minicard
As to the kind of experiment: Pepscan ELISA, 10 µg/ml.
Text: as §1, §2

The target in another assay is T11, IYAPIAV (also: covalently linked to polyethylene card).
T11 construct: 7-mer Pepscan peptide derived from human CD20 (A in place of the C of IYAPICV)
T11 peptide: IYAPIAV
As to the kind of experiment: Pepscan ELISA, 10 µg/ml.
Text: as §1, §2

In another assay the target is T12, CAHTPYINC (linker 1-9 via 1,3‑bis(bromomethyl)‑benzene (inferred); not fully specified (C-terminus); also: covalently linked to minicard).
T12 construct: 9-mer looped Pepscan peptide derived from human CD20
T12 peptide: CAHTPYINC
Nature of the assay: Pepscan ELISA, 10 µg/ml.
Text: as §1, §2

A further assay addresses T13, ICIYNAEPANPSECN (linker 2-14 via 1,3‑bis(bromomethyl)‑benzene (inferred); reading uncertain).
T13 construct: 15-mer looped Pepscan peptide derived from human CD20, Cys put in at two positions
T13 peptide: Ac-ICIYNAEPANPSECN-minicard
As to the kind of experiment: Pepscan ELISA, 10 µg/ml.
Text: as §1, §2

In assay [1] the target is T14, IPAGIYA (also: covalently linked to polyethylene card).
T14 construct: 7-mer Pepscan peptide derived from human CD20
T14 peptide: IPAGIYA
As to the kind of experiment: Pepscan ELISA, 10 µg/ml.
Text: as §1, §2

The target in assay [2] is T15, EPANPSEK of the second extracellular loop of human CD20 (human).
T15 construct: not a peptide made as such
T15 peptide: EPANPSEK
Nature of the assay: Pepscan ELISA. The method, then: (§3) Pepscan ELISA-assay: The 455-well credit card-format polyethylene cards, containing the covalently linked peptides, were incubated with serum (diluted 1:1000 in blocking solution which contains 5% horse serum (v/v) and 5% ovalbumin (w/v)) (4° C., over night). After washing, the peptides were incubated with anti-human antibody peroxidase (dilution 1:1000, 1 hour, 25° C.), and after washing the peroxidase substrate, 2,2′-azino-di-3-ethylbenzthiazolin sulfonate and 2 μl/ml 3% H₂O₂ were added. After one hour, the color development was measured. The color development of the ELISA was quantified with a CCD-camera and an image processing system. The set up consists of a CCD-camera and a 55 mm lens (Sony CCD Video Camera XC-77RR, Nikon micro-nikk or 55 mm f/2.8 lens), a camera adaptor (Sony Camera adaptor DC-77RR) and the Image Processing Software package Optimas, version 6.5 (Media Cybernetics, Silver Spring, Md. 20910, U.S.A.). Optimas runs on a pentium II computer system.

The target of assay [3] is T14, IPAGIYA. Nature of the assay: Pepscan ELISA, 100 µg/ml.
Text: as §1, §2

Assay [4] has as its target T16, AGIYAP of the small first extracellular loop of human CD20 (human).
T16 construct: not a peptide made as such
T16 peptide: AGIYAP
As to the kind of experiment: Pepscan ELISA. The method, then: as §3

In assay [5] the target is T17, MESLNFIRAHTPYI of the second extracellular loop of human CD20 (human).
T17 construct: not a peptide made as such
T17 peptide: MESLNFIRAHTPYI
As to the kind of experiment: Pepscan ELISA. The method, then: as §3

*1 amine or outer side, *2 acyl side, *3 side chain or, on linkers, in order; H or OH if unused. Bridges are numbered along the chain shown (N, C = ends). Where no end group is shown, it is not given here. mXylylene = c1cc(C[*:1])cc(C[*:2])c1; minicard = not defined here

B1: 11B8 (antibody, IgG3, V domains shown)
VH: EVQLVQSGGGLVHPGGSLRLSCTGSGFTFSYHAMHWVRQAPGKGLEWVSIIGTGGVTYYADSVKGRFTISRDNVKNSLYLQMNSLRAEDMAVYYCARDYYGAGSFYDGLYGMDVWGQGTTVTVSS
VL: EIVLTQSPATLSLSPGERATLSCRASQSVSSYLAWYQQKPGQAPRLLIYDASNRATGIPARFSGSGSGTDFTLTISSLEPEDFAVYYCQQRSDWPLTFGGGTKVEIK
notes: Human monoclonal IgG3,κ from hybridoma
Turning to B1, the “OD (absorbance)” value came to 251 OD in the assay with AGIYAPI; 118 OD in the assay with PCINIYNAEPANPCE; 115 OD with ICNAEPANPSEKNCP; 146 OD in the assay with ACPANPSEKNSPSCQ; 763 OD with KMECLNFIRAHCPYI; 179 OD in the assay with MESLCFIRAHCPYIN. In addition, the “OD (absorbance)” value with CIRAHTPYC turned out to be 151 OD; with YCNIYNAEPANPSCK it was 287 OD; in the assay with GIYAPIC, 99 OD; with KMESCNFIRACTPYI it was 625 OD; in the assay with IYAPIAV, 161 OD; with CAHTPYINC, 179 OD. Also, the “OD (absorbance)” value in the assay with ICIYNAEPANPSECN worked out at 138 OD; in the assay with IPAGIYA [1], 217 OD; with IPAGIYA [3], 950 OD. Further, in assay [2], the binding result is recorded as “no binding (tested: 10 µg/ml)”.

B2: 7D8 (antibody, IgG1, V domains shown)
VH: EVQLVESGGGLVQPDRSLRLSCAASGFTFHDYAMHWVRQAPGKGLEWVSTISWNSGTIGYADSVKGRFTISRDNAKNSLYLQMNSLRAEDTALYYCAKDIQYGNYYYGMDVWGQGTTVTVSS
VL: EIVLTQSPATLSLSPGERATLSCRASQSVSSYLAWYQQKPGQAPRLLIYDASNRATGIPARFSGSGSGTDFTLTISSLEPEDFAVYYCQQRSNWPITFGQGTRLEIK
notes: Human monoclonal IgG1,κ from hybridoma
In the case of B2, the “OD (absorbance)” value in the assay with AGIYAPI worked out at 188 OD; in the assay with PCINIYNAEPANPCE, 163 OD; with ICNAEPANPSEKNCP it was 165 OD; in the assay with ACPANPSEKNSPSCQ it was 148 OD; with KMECLNFIRAHCPYI, 134 OD; with MESLCFIRAHCPYIN it was 127 OD. The “OD (absorbance)” value with CIRAHTPYC came to 186 OD; with YCNIYNAEPANPSCK, 181 OD; in the assay with GIYAPIC, 152 OD; with KMESCNFIRACTPYI, 142 OD; in the assay with IYAPIAV, 181 OD; in the assay with CAHTPYINC, 174 OD. Also, the “OD (absorbance)” value was found to be 192 OD with ICIYNAEPANPSECN and 164 OD with IPAGIYA [1]. Besides, the binding result was “no binding (tested: 100 µg/ml)” in assay [4], “no binding (tested: 100 µg/ml)” in [5] and “no binding (tested: 10 µg/ml)” in assay [2].

B3: 2F2 (antibody, V domains shown)
VH: EVQLVESGGGLVQPGRSLRLSCAASGFTFNDYAMHWVRQAPGKGLEWVSTISWNSGSIGYADSVKGRFTISRDNAKKSLYLQMNSLRAEDTALYYCAKDIQYGNYYYGMDVWGQGTTVTVSS
VL: EIVLTQSPATLSLSPGERATLSCRASQSVSSYLAWYQQKPGQAPRLLIYDASNRATGIPARFSGSGSGTDFTLTISSLEPEDFAVYYCQQRSNWPITFGQGTRLEIK
modifications: FITC- or 125I-labelled in some assays; F(ab')2 fragments in some; the letters do not carry this
notes: Human monoclonal IgG1,κ from hybridoma; also called 4C9; HuMab 2F2 (hybridoma-derived)
For the molecule B3, the “OD (absorbance)” value is 44 OD with AGIYAPI; 65 OD with PCINIYNAEPANPCE; 43 OD with ICNAEPANPSEKNCP; 77 OD with ACPANPSEKNSPSCQ; 48 OD in the assay with KMECLNFIRAHCPYI; 41 OD with MESLCFIRAHCPYIN. Moreover, the “OD (absorbance)” value in the assay with CIRAHTPYC came to 57 OD; with YCNIYNAEPANPSCK, 86 OD; with GIYAPIC, 34 OD; with KMESCNFIRACTPYI, 39 OD; with IYAPIAV, 62 OD; in the assay with CAHTPYINC, 42 OD. Also, the figures for the “OD (absorbance)” value with ICIYNAEPANPSECN, with IPAGIYA [1] and in the assay with IPAGIYA [3] were 78 OD, 48 OD and 85 OD, respectively.
